Data reported in patent US10745461B2, “Pulsed introduction of low-dose RANKL as a therapy for diet-induced atherosclerosis” (Saint Louis University, priority 2015, dated 2020).
“Also recorded” adds a separate entry of the source.

B1: IL-17A: recombinant murine IL-17A, pro-inflammatory cytokine (protein, UniProt Q62386 26-158, looked up)
Interleukin-17A: AAIIPQSSACPNTEAKDFLQNVKVNLKVFNSLGAKVSSRRPSDYLNRSTSPWTLHRNEDPDRYPSVIWEAQCRHQRCVNAEGKLDHHMNSVLIQQEILVLKREPESCPFTFRVEKMLVGVGCTCVASIVRQAA

Legend:
[1] = tested on: FoxP3 induction in OT-I CD8 T-cells by osteoclasts; assay: TcREG (FoxP3) induction in OT-I CD8 T-cells co-cultured with bone marrow-derived osteoclasts; assay type: cell-based, mice; conditions: in culture, IL-17 10 ng/ml, increasing TNFα, DAPT 10 μM, Fc proteins added to T-cells prior to co-culture
Experimental: It was also determined that IL-17 and TNFα suppresses TcREG induction by osteoclasts. […] Another possibility is that loss of estrogen leads to increased production of the pro-inflammatory cytokines by T-cells that increase osteoclast activity. Without being limited to any method of operation, it is actually expected that in the presence of pro-inflammatory cytokines osteoclasts fail to induce TcREG. As estrogen depletion lead to greater number of osteoclasts because of a decreased Fas ligand expression, the loss of TcREG induction and increased osteoclast numbers would tip the balance towards increased osteoclast resorption and net bone loss. To test fir this possibility, OC-iTcREG induction was measured in the presence of IL-17 and TNFα. […] To understand the underlying mechanism of how TNFα affects osteoclasts' ability to induce TcREG, the signals provided by osteoclasts to induce FoxP3 in the CD8 T-cells were investigated along with if these signals were affected by […].
(§1) The most common and well-studied costimulatory signals on antigen-presenting cells are CD80 (B7.1) and CD86 (B7.2). As CD80/CD86 double knockout mice are commercially available, osteoclasts were generated from bone marrow precursors of these mice. The CD80/CD86 null osteoclasts (as well as wild-type controls) were then used to prime OT-I T-cells in the presence and absence of antigen. […] OT-I CD8 T-cells activated by CD80/CD86 null osteoclasts produced IL-6, IL-2 and IFN-γ to levels indistinguishable from wild-type mice (FIG. 4B). Having ruled out CD80/CD86 as the costimulatory molecules, an osteoclast microarray dataset was queried for other costimulatory molecules expressed by osteoclasts. Osteoclasts that express CD200 and c-Mer were found. The role of CD200 was chosen for testing based on the phenotype of CD200^−/− mice and the reported role for CD200 in regulating TcREG.
The most, well characterized regulator of FoxP3 in T-cells is TGFβ. It has been previously shown that neutralization or addition of TGFβ has no effect on the induction of TcREG. Therefore identification of other pathways that can regulate the FoxP3 promoter in T-cells was sought. A number of previous studies have identified that the Notch signaling contributes to FoxP3 induction. To test if Notch signaling is important for TcREG induction by osteoclasts, the γ-Secretase inhibitor DAPT was initially used. Ligation of the Notch receptor by its ligand leads to cleavage of Notch by γ-secretase. […] Next, we identified the Notch ligands expressed in osteoclasts using reverse-transcription followed by PCR. […] Of the four, the osteoclast-precursors (bone marrow cells treated with M-CSF but not RANKL) express all of the ligands except DLL4 (FIG. 5C). To assess the role of DLL4 in TcREG (soluble) DLL4-Fc was added to OT-I CD8 T-cells prior to co-culturing with osteoclasts. […] To assess the role of DLL4 in vivo the induction experiments as described in FIG. 1 were performed: GFP negative (polyclonal) CD8 T-cells were purified by cell sorting and transferred into OT-II Rag^−/− mice. Two hours prior to RANKL treatment, DLL4-Fc or a control IgG1-Fc, were injected intravenously into the recipient mice, As described for FIG. 1, RANKL (0.125 mg/kg) was then administered on two consecutive days.
DLL-4 expression is repressed in the presence of […] and IL-17 but can be de-repressed by RANKL. […]

DLL4 = DLL4 expression in mature osteoclasts by qRT-PCR; assay type: cell-based, mouse; conditions: overnight in 20 ng/ml TNFα or 10 ng/ml IL-17
Source text: DLL-4 expression is repressed in the presence of […] and IL-17 but can be de-repressed by RANKL. Having identified that DLL4 was required for osteoclasts to induce Foxp3 expression in CD8+ T cells we next tested if DLL-4 expression was affected by pro-inflammatory cytokines. […] As RANKL induced DLL4 in osteoclast precursors, it was hypothesized that adding additional RANKL may overcome the repression of DLL4 by TNFα. To assess the reversibility of DLL4 expression, mature osteoclasts were cultured overnight in 50 ng/ml RANKL and 20 ng/ml […], and then additional RANKL was added to the culture media (while maintaining 20 ng/ml TNFα) as shown in FIG. 5E. Indeed, addition of RANKL overcomes (within 24 hours) the repression of DLL4 by TNFα as assessed by qRT-PCR. […] The experiment was performed as above, but in this case FoxP3 induction in OT-I CD8 T-cells in the presence of OVA and either 10 ng/ml or 20 ng/ml TNFα was measured.
(§2) Osteoclasts seeded on day 4 at 1.5×10^6 cells/ml were used in all experiments. RNA was isolated at time point described in Figure legends. 10 to 50 ng of RNA was used for first-strand cDNA synthesis in 50 μL reaction per kit instructions (Superscript III cDNA synthesis system; Invitrogen). In all cases 10% of the cDNA product was used in a 50 μL PCR reaction that contained 10 μM each forward and reverse primers. For quantitative PCR (qPCR) SYBR green system (Invitrogen) was used. Otherwise, cDNA was amplified (25 cycles) and the products resolved on 1.2% agarose gel and visualized by ethidium bromide staining.

CD200 = CD200 expression in mature osteoclasts by qRT-PCR; assay type: cell-based, mouse; conditions: TNFα 20 ng/ml or IL-17A 10 ng/ml
Source text: as §1, §2

| Molecule | effect of added agent on TcREG/FoxP3 induction by osteoclasts [1] | DLL4 transcripts in mature osteoclasts after cytokine (DLL4) | CD200 mRNA expression in mature osteoclasts (CD200) | effect of added agent on TcREG/FoxP3 induction by osteoclasts ([1]; listed as IL-17) | DLL4 transcripts in mature osteoclasts after cytokine (DLL4; listed as IL-17) | CD200 mRNA expression in mature osteoclasts (CD200; listed as IL-17) |
| --- | --- | --- | --- | --- | --- | --- |
| C[C@H](NC(=O)Cc1cc(F)cc(F)c1)C(=O)N[C@H](C(=O)OC(C)(C)C)c1ccccc1 [DAPT, reference compound] | completely inhibited TcREG induction; also recorded: completely abrogated FoxP3 induction |  |  |  |  |  |
| TNFα [reference compound] | reduced TcREG induction in a dose dependent manner; also recorded: greatly impaired | DLL4 expression was repressed; also recorded: significantly reduced | had no effect on CD200 expression; also recorded: not altered |  |  |  |
| B1 | significantly reduced | DLL4 expression was repressed | had no effect on CD200 expression | greatly impaired | significantly reduced | not altered |
